Kd and IC50 data for 32 sequences are collected here from the Immune Epitope Database (IEDB).

Some results are limits rather than exact numbers.

The target of experiment [1] is HLA-B*15:01. The experiment is described as follows: IEDB peptide-MHC binding, purified MHC/competitive/radioactivity; filed as Kd, often an IC50 or EC50 that approximates it; ≥ and ≤ were set here for values at or beyond the usual limits of such assays.
The target of experiment [2] is HLA-A*26:01. The experiment is described as above. The settings on record: source organism: Dengue virus 3 Martinique/1243/1999.
In another experiment the target is HLA-B*40:01. The description is as above.
Another experiment addresses HLA-B*44:02. The description is as above.
The target of a further experiment is HLA-A*24:02. Put plainly: IEDB peptide-MHC binding, purified MHC/competitive/fluorescence; ≥ and ≤ were set here for values at or beyond the usual limits of such assays.
A further experiment has as its target HLA-B*35:01. The experiment is described as follows: IEDB peptide-MHC binding, purified MHC/competitive/radioactivity; filed as Kd, often an IC50 or EC50 that approximates it; ≥ and ≤ were set here for values at or beyond the usual limits of such assays. The note with it: source organism: Dengue virus 3 Sri Lanka/1266/2000.
A further experiment deals with HLA-A*30:02. The experiment is described as above.
Experiment [3] addresses HLA-A*26:01. Put plainly: IEDB peptide-MHC binding, purified MHC/direct/fluorescence; filed as Kd, often an IC50 or EC50 that approximates it; ≥ and ≤ were set here for values at or beyond the usual limits of such assays.
A further experiment deals with HLA-A*01:01. The experiment is described as follows: IEDB peptide-MHC binding, purified MHC/competitive/radioactivity; filed as Kd, often an IC50 or EC50 that approximates it; ≥ and ≤ were set here for values at or beyond the usual limits of such assays.
In the next experiment the target is HLA-A*02:01. The experiment is described as follows: IEDB peptide-MHC binding, purified MHC/competitive/fluorescence; ≥ and ≤ were set here for values at or beyond the usual limits of such assays.
A further experiment addresses HLA-A*30:01. Put plainly: IEDB peptide-MHC binding, purified MHC/competitive/radioactivity; filed as Kd, often an IC50 or EC50 that approximates it; ≥ and ≤ were set here for values at or beyond the usual limits of such assays. The note with it: source organism: Mammarenavirus juninense.
The next experiment concerns the target HLA-A*32:01. The description is as above.
The target of another experiment is HLA-A*29:02. The experiment is described as above. The settings on record: source organism: Mammarenavirus juninense.
Experiment [4] deals with HLA-B*15:01. The experiment is described as follows: IEDB peptide-MHC binding, purified MHC/competitive/fluorescence; filed as Kd, often an IC50 or EC50 that approximates it; ≥ and ≤ were set here for values at or beyond the usual limits of such assays. The settings on record: source organism: Influenza A virus (A/Queensland/11/2001(H3N2)).
The target in the next experiment is HLA-B*08:01. The experiment is described as follows: IEDB peptide-MHC binding, purified MHC/competitive/radioactivity; filed as Kd, often an IC50 or EC50 that approximates it; ≥ and ≤ were set here for values at or beyond the usual limits of such assays. The settings on record: source organism: Vaccinia virus WR.
The next experiment deals with HLA-B*51:01. Described as above.
Another experiment addresses HLA-B*44:03. The experiment is described as above. The note with it: source organism: Dengue virus 3 Martinique/1243/1999.
Setting [5] is: source organism: Dengue virus 3 Martinique/1243/1999.
Where [6] appears, read: source organism: Dengue virus 2 Jamaica/1409/1983.
Setting [7] is: source organism: Vaccinia virus WR.
[8] abbreviates: source organism: Zaire ebolavirus.
Setting [9] is: source organism: Dengue virus 2 Peru/IQT2913/1996.
Setting [10] is: source organism: Mammarenavirus juninense.
The mark [11] stands for this setting: source organism: Vaccinia virus.
Where [12] appears, read: source organism: Dengue virus 4 Philippines/H241/1956.
Setting [13] is: source organism: Dengue virus 3 Singapore/8120/1995.
[14] abbreviates: source organism: Vaccinia virus Copenhagen.
Where [15] appears, read: source organism: Dengue virus 1 Brazil/97-11/1997.

As usually defined, the Kd is the constant that tells how readily two partners part at equilibrium. In the case of HVTRGAVLTY, the Kd came to 94 nM with HLA-B*15:01 [1] (setting [5]) and 114 nM in the experiment with HLA-A*26:01 [2].
As for FEKQLGQVM, the Kd is 527 nM with HLA-B*40:01 (setting [6]) and 319 nM with HLA-B*44:02 (setting [6]).
With KVSIYKTHI, the equilibrium dissociation constant (Kd) with HLA-B*15:01 [1] (setting [7]) stood at 1460 nM.
A word on the IC50: it is the midpoint of a concentration-inhibition curve. Read a high IC50 as weaker potency. For the sequence EGIYIEGLM, the IC50 with HLA-A*24:02 (setting [8]) is at least 154000 nM.
Still for that read-out and setting: the result for ECLPAAPDG reads at least 394000 nM.
In the case of LAGPISQHNY, the figures for the dissociation constant (Kd) in the experiment with HLA-B*35:01 and with HLA-A*30:02 (source organism: Dengue virus 3 Sri Lanka/1266/2000) were 187 nM and at least 60300 nM, respectively.
As for FGAQHSTTL, in the experiment with HLA-A*24:02 (source organism: Sudan ebolavirus), the 50% inhibitory concentration (IC50) was determined as 60500 nM.
Take MGLNYKLTF: the dissociation constant (Kd) with HLA-B*15:01 [1] (setting [7]) was found to be 3540 nM.
Take LLHRCIYHY: the Kd with HLA-B*15:01 [1] (setting [7]) is 42.9 nM.
Turning to RVKLGLGIM, the dissociation constant (Kd) in the experiment with HLA-A*26:01 [3] (source organism: Salmonella enterica subsp. enterica serovar Typhimurium) came out at 1300 nM.
On to FTMRHKKATY, for which the Kd in the experiment with HLA-B*15:01 [1] (setting [9]) was 138 nM; with HLA-A*30:02 (setting [9]), at least 43400 nM; with HLA-A*01:01 (setting [9]), 1260 nM.
On to IDFLLQRWG, for which the 50% inhibitory concentration (IC50) with HLA-A*24:02 (setting [8]) was 68400 nM; with HLA-A*02:01 (setting [8]), at least 134000 nM.
As to RTSFFLWVI, the IC50 with HLA-A*24:02 (setting [8]) worked out at 16.9 nM; in the experiment with HLA-A*02:01 (setting [8]), 263 nM.
On to ELGNILSVY, for which the Kd is 16.5 nM with HLA-A*26:01 [3] (setting [10]); 11000 nM with HLA-A*30:01; at least 77800 nM with HLA-A*32:01 (setting [10]); 4.02 nM with HLA-A*30:02 (setting [10]); 16500 nM in the experiment with HLA-A*01:01 (setting [10]); 11000 nM with HLA-A*29:02.
Turning to ATNLEYKTL, the IC50 with HLA-A*24:02 (setting [11]) was 43600 nM; with HLA-A*02:01 (setting [11]) it was at least 85800 nM.
As to QLAMTDTTPF, the Kd with HLA-B*15:01 [1] (setting [12]) was 2.34 nM.
In turn, GMMDGWYGF had a Kd with HLA-B*15:01 [4] of 21.9 nM.
With LEKASFIEV, the results for the Kd in the experiment with HLA-B*40:01 (setting [13]) and with HLA-B*44:02 (setting [13]) were 1040 nM and 9570 nM, respectively.
As for KVKSCLCSF, the Kd with HLA-B*15:01 [1] (setting [7]) came to 16.6 nM.
Turning to ESKMSFLPI, the values for the dissociation constant (Kd) in the experiment with HLA-B*15:01 [1] (setting [7]) and with HLA-B*08:01 were 358 nM and 1.06 nM, respectively.
As to LIWKVNPEI, the half-inhibitory concentration (IC50) is 1310 nM in the experiment with HLA-A*24:02 (setting [8]) and 426 nM with HLA-A*02:01 (setting [8]).
Turning to LAVWNRVWI, in the experiment with HLA-B*51:01 (setting [6]), the Kd stood at 4950 nM.
On to LILSCIFAF, for which the values for the Kd in the experiment with HLA-B*15:01 [1] (setting [14]) and with HLA-A*32:01 (setting [14]) were 543 nM and 427 nM, respectively.
On to IIIPFIAYF, for which the Kd in the experiment with HLA-B*15:01 [1] (setting [7]) stood at 1.59 nM.
As for KEISNMLSI, the dissociation constant Kd was found to be 6.44 nM in the experiment with HLA-B*40:01 (setting [5]), 21.8 nM in the experiment with HLA-B*44:03, 6370 nM with HLA-A*32:01 (setting [5]) and 28.2 nM with HLA-B*44:02 (setting [5]).
On to LANFLCLLM, for which, in the experiment with HLA-B*15:01 [1] (setting [7]), the Kd was found to be 1310 nM.
For LPLPWTSGA, the Kd in the experiment with HLA-B*51:01 (setting [15]) turned out to be 926 nM.
For IPLQWIASAI, the Kd with HLA-B*51:01 (setting [5]) amounted to 7.48 nM.
LIVMDEAHF: the Kd in the experiment with HLA-B*15:01 [1] (setting [12]) was 30.9 nM.
As for SPTVEESRTI, in the experiment with HLA-B*51:01 (setting [5]), the equilibrium dissociation constant (Kd) turned out to be 3780 nM.
For KPWDVIPMV, the Kd with HLA-B*51:01 (setting [15]) turned out to be 1110 nM.
CVLEAMAFL: the Kd in the experiment with HLA-A*26:01 [3] (source organism: Influenza A virus (A/chicken/Hebei/nj/2002(H9N2))) was at least 20000 nM.
